From PMC5377238

Substrate: C[S+](CC[C@H](N)C(=O)[O-])C[C@H]1O[C@@H](n2cnc3c(N)ncnc32)[C@H](O)[C@@H]1O
Assay: purified protein
Conditions: pyruvoyl group (converted Ser68)

B1: human S-adenosylmethionine decarboxylase (hAdoMetDC) (Homo sapiens) (protein)
chain 1: MEAAHFFEGTEKLLEVWFSRQQPDANQGSGDLRTIPRSEWDILLKDVQCSIISVTKTDKQEAYVLSE
chain 2: SSMFVSKRRFILKTCGTTLLLKALVPLLKLARDYSGFDSIQSFFYSRKNFMKPSHQGYPHRNFQEEIEFLNAIFPNGAAYCMGRMNSDCWYLYTLDFPESRVISQPDQTLEILMSELDPAVMDQFYMKDGVTAKDVTRESGIRDLIPGSVIDATMFNPCGYSMNGMKSDGTYWTIHITPEPEFSYVSFETNLSQTSYDDLIRKVVEVFKPGKFVTTLFVNQSSKCRTVLASPQKIEGFKRLDCQSAMFNDYNFVFTSFAKKQQQQQS
Question: For B1, which Km is on record?
Answer: 3.1 ± 1.8 µM
